Measured values: paper PMC10373194, “Determination of the Dissociation Constant for Polyvalent Receptors Using ELISA: A Case of M13 Phages Displaying Troponin T-Specific Peptides” (ACS Omega, 2023)
Values joined by “and” are separate entries in the source; they are usually repeats but may differ in a detail not shown here. Equal entries are not always repeated. Where two headings read alike, the source gives them in different places.

How the values were obtained:
troponin T (TnT) [1] = target: T1, troponin T (TnT) (Homo sapiens, UniProt P45379); test: Determination of Kd via k-ELISA (Friguet procedure, preincubation of phage with soluble TnT); assay type: binding
Description: During an ELISA experiment, as proposed by Friguet,[21] a constant concentration of phages is incubated with different concentrations of TnT. Saturation of phages (in solution) by soluble TnT limits the ability of phages to bind to immobilized TnT, and therefore, increasing concentration of TnT causes a decrease in signal from the phages, in our case, the M13. Theoretically, two options have to be discussed: (1) a signal (a) is generated for each phage with at least one unoccupied active site (eq 11) and (2) a signal (a) is generated proportionally to the total concentration of unoccupied active sites (eq 12). [drawing 21] 11 [drawing 22] 12
ELISA (also k-ELISA) can be used to measure the dissociation constant (Kd), which is commonly applied to describe affinity.[21] According to the mathematical model presented above, the Kd value can be calculated via pre-incubation of a receptor with varied concentrations of ligand and subsequent detection of the soluble receptor (phage) via ELISA. This approach was adapted and applied to evaluate the affinity of several phage-derived ligands[16]−[18] but without a theoretical analysis and fulfilling fundamental Friguet’s assumptions.[21] In these papers, phages were treated as monovalent receptors while they are tri to pentavalent (due to a varied number of pIII protein per phage particle). Moreover, the authors applied a wide range of ligand concentrations, high excess compared to the receptor and treated the concentration-signal function as logarithmic, while the discussion above concluded that it is not possible to apply Frigeut’s method for almost completely saturated receptors (due to ligand excess).
In our work, analysis was performed for clones: A3, B7, D11, and wild-type M13. […] The phages’ total concentration was about 1 × 10^10 pfu/mL (16 pM) and was carefully determined using the biological method immediately before analysis. The range of ratios of total TnT and total phage concentration was 1:2, 1:1, 2:1, and 4:1. […] As a result, a decrease in the ability to bind to immobilized TnT molecules occurs. Experimental data were analyzed according to the presented mathematical model.
The dissociation constant was calculated using k-ELISA, according to the procedure first described by Friguet.[21] Phages (∼10^10 pfu/mL corresponding to about 16 pM) were preincubated with different concentrations of TnT from 0 to 4 ng/mL (which corresponds to 108 pM). Next, mixtures were transferred into wells precoated with 0.25 μg/mL TnT (or BSA). Further steps were performed in the same manner as for phage concentration measuring experiments.

troponin T (TnT) [2] = target: T1, troponin T (TnT); test: ELISA screening of isolated phage clones against TnT (BSA as negative control)
Description: It is worth mentioning that both TnT- and BSA-precoated wells were blocked with the same 0.1% BSA solution, so BSA was present in each well in significant excess.
ELISAs were performed in 96-well polystyrene plates (Thermo Scientific, USA). Wells were precoated with the desired protein by 16–20 h incubation of the protein suspension in PBS at 4 °C. In all assays, 1:5000 dilution of HRP-antiM13pVIII monoclonal antibody conjugate was used. Signals were recorded using Synergy HTX Multi-Mode Reader by BioTek.
In the initial screening, plates were precoated with troponin T or BSA (negative control) by incubating 100 μL of 1 μg/mL appropriate protein solution. Then plates were blocked with 0.1% BSA for 2 h at 4 °C and washed 4 times with 0.1% PBST. Every isolated phage clone solution (phages concentration 10^10 pfu/mL, 100 μL) was incubated with TnT and BSA for 1 h at 350 rpm at room temperature. Then wells were washed 4 times using 0.1% PBST, 100 μL of HRP-antibody conjugate was added, and plates were incubated as previously. After 1 h, plates were washed as before, and 50 μL of TMB was added. After 5 min, the reaction was stopped by adding 50 μL of 2 M sulfuric acid. Absorbance at 450 nm was read using a Synergy HTX Multi-Mode Reader (BioTek) plate reader.

troponin T (TnT) [3] = target: T1, troponin T (TnT); assay type: binding
troponin T (TnT) [4] = target: T1, troponin T (TnT); test: Bio-panning of Ph.D.-12 phage display library on TnT-coated plates; assay type: binding; details: after 3 rounds of bio-panning; number of proper sequences
From the text: In each bio-panning round, the input and output phases were titrated immediately before or after the experiment. The presented mean p(O/I) value for each bio-panning round may be interpreted as the efficiency of phage binding. In chemical nomenclature, p(x) is defined as −log(x), so a higher p(O/I) means a lower ratio of phage output–input. The p(O/I) value for the first panning round is relatively low. However, usage of more concentrated Tween-20 (from 0.1 to 0.5%) causes a significant increase in p(O/I) values for the second round (around 4) despite a higher phage input. In addition, there is a difference between the second and the third p(O/I), which may be interpreted as an enrichment of TnT-binders in the phage pool, and it is the main aim of bio-panning via phage display. The increase in phage recovery yield is a widely reported observation by manufacturers and other authors.[14],[17],[35],[36]
Plate panning was performed regarding the general concept presented by Barbas et al.[60] with some modifications. Polystyrene plates were precoated with TnT and incubated overnight (18–24 h) in 100 μL of 20 μg/mL TnT solution in PBS at 4 °C. Then, the wells were emptied and filled with 100 μL of 0.1% BSA solution (in PBS) and incubated for 2 h in the fridge. Later, they were washed four times with PBST 0.1% (in the first panning round) and 0.5% in the next two. […]

[5] = assumed stoichiometry 1:1, k-ELISA, phages ~10^10 pfu/mL (about 16 pM) preincubated with TnT 0 to 4 ng/mL, wells precoated 0.25 μg/mL TnT, 0.01% myoglobin blocking, absorbance 370 nm every 70 s for 10 min, linear slope regression, triplicate, phage-displayed peptide
[6] = assumed stoichiometry 1:2, k-ELISA, phages ~10^10 pfu/mL (about 16 pM) preincubated with TnT 0 to 4 ng/mL, wells precoated 0.25 μg/mL TnT, 0.01% myoglobin blocking, absorbance 370 nm every 70 s for 10 min, linear slope regression, triplicate, phage-displayed peptide

Substance: DHAQRYGAGHSG [A3]
- Kd (troponin T (TnT) [1]): 0.115 nM and 0.187 nM and 0.172 nM
- ELISA signal TnT versus BSA / affinity in screening (in words) (troponin T (TnT) [2]): highest affinity in screening
- nature of interaction with target (troponin T (TnT) [3]): specific interaction with the studied target
- frequency among sequenced clones (troponin T (TnT) [4]): 4 out of 16 and 4/16

Substance: D11: TnT-binding M13 phage clone displaying 12-amino-acid peptide (ALKIGPETTIYM in Table 2) on pIII
- Kd (troponin T (TnT) [1]; [5]): 0.167 ± 0.007 nM
- Kd (troponin T (TnT) [1]; [6]): 0.216 ± 0.04 nM

Substance: B7: TnT-binding M13 phage clone displaying 12-amino-acid peptide (HRSMPTPLWYTA in Table 2) on pIII
- Kd (troponin T (TnT) [1]; [5]): 0.077 ± 0.013 nM
- Kd (troponin T (TnT) [1]; [6]): 0.166 ± 0.03 nM
- Kd (troponin T (TnT) [1]; assumed stoichiometry 1:5, k-ELISA, phages ~10^10 pfu/mL (about 16 pM) preincubated with TnT 0 to 4 ng/mL, wells precoated 0.25 μg/mL TnT, 0.01% myoglobin blocking, absorbance 370 nm every 70 s for 10 min, linear slope regression, triplicate, phage-displayed peptide): 0.143 ± 0.053 nM
